Source: patent US20130040853A1, “Context Specific Genetic Screen Platform to Aid in Gene Discovery and Target Validation” (Dana-Farber Cancer Institute Inc., priority 2010, published 2013)
Where a chain is given by its changes, count along the chain named. Names and notes keep the numbering of the source.

B1: MAP2K4 WT: wild type MAP2K4 kinase ORF expressed from lentiviral vector in HMEL cells (protein, UniProt P45985 1-399, looked up)
chain: MAAPSPSGGGGSGGGSGSGTPGPVGSPAPGHPAVSSMQGKRKALKLNFANPPFKSTARFTLNPNPTGVQNPHIERLRTHSIESSGKLKISPEQHWDFTAEDLKDLGEIGRGAYGSVNKMVHKPSGQIMAVKRIRSTVDEKEQKQLLMDLDVVMRSSDCPYIVQFYGALFREGDCWICMELMSTSFDKFYKYVYSVLDDVIPEEILGKITLATVKALNHLKENLKIIHRDIKPSNILLDRSGNIKLCDFGISGQLVDSIAKTRDAGCRPYMAPERIDPSASRQGYDVRSDVWSLGITLYELATGRFPYPKWNSVFDQLTQVVKGDPPQLSNSEEREFSPSFINFVNLCLTKDESKRPKYKELLKHPFILMYEERAVEVACYVCKILDQMPATPSSPMYVD
modifications: full-length
notes: wild type MAP2K4 kinase ORF expressed from lentiviral vector in HMEL cells
B2: JNK2 p.V13M: JNK2 somatic mutant, observed in colorectal adenocarcinoma (protein, UniProt P45984 1-424, looked up, variant V13M)
Mitogen-activated protein …: MSDSKCDSQFYSMQVADSTFTVLKRYQQLKPIGSGAQGIVCAAFDTVLGINVAVKKLSRPFQNQTHAKRAYRELVLLKCVNHKNIISLLNVFTPQKTLEEFQDVYLVMELMDANLCQVIHMELDHERMSYLLYQMLCGIKHLHSAGIIHRDLKPSNIVVKSDCTLKILDFGLARTACTNFMMTPYVVTRYYRAPEVILGMGYKENVDIWSVGCIMGELVKGCVIFQGTDHIDQWNKVIEQLGTPSAEFMKKLQPTVRNYVENRPKYPGIKFEELFPDWIFPSESERDKIKTSQARDLLSKMLVIDPDKRISVDEALRHPYITVWYDPAEAEAPPPQIYDAQLEEREHAIEEWKELIYKEVMDWEERSKNGVVKDQPSDAAVSSNATPSQSSSINDISSMSTEQTLASDTDSSLDASTGPLEGCR
B3: JNK2 p.K56N: JNK2 somatic mutant, observed in head & neck squamous cell (protein, UniProt P45984 1-424, looked up, variant K56N)
Mitogen-activated protein …: B2 Mitogen-activated protein … with M13V, K56N
B4: JNK1 WT: wild type MAPK8/JNK1 kinase ORF expressed in HMEL cells (protein, UniProt P45983 1-427, looked up)
Mitogen-activated protein …: MSRSKRDNNFYSVEIGDSTFTVLKRYQNLKPIGSGAQGIVCAAYDAILERNVAIKKLSRPFQNQTHAKRAYRELVLMKCVNHKNIIGLLNVFTPQKSLEEFQDVYIVMELMDANLCQVIQMELDHERMSYLLYQMLCGIKHLHSAGIIHRDLKPSNIVVKSDCTLKILDFGLARTAGTSFMMTPYVVTRYYRAPEVILGMGYKENVDLWSVGCIMGEMVCHKILFPGRDYIDQWNKVIEQLGTPCPEFMKKLQPTVRTYVENRPKYAGYSFEKLFPDVLFPADSEHNKLKASQARDLLSKMLVIDASKRISVDEALQHPYINVWYDPSEAEAPPPKIPDKQLDEREHTIEEWKELIYKEVMDLEERTKNGVIRGQPSPLGAAVINGSQHPSSSSSVNDVSSMSTDPTLASDTDSSLEAAAGPLGCCR
B5: MAP2K7 WT: wild type MAP2K7 kinase ORF expressed in HMEL cells (protein, UniProt O14733 2-419, looked up)
Dual specificity …: AASSLEQKLSRLEAKLKQENREARRRIDLNLDISPQRPRPTLQLPLANDGGSRSPSSESSPQHPTPPARPRHMLGLPSTLFTPRSMESIEIDQKLQEIMKQTGYLTIGGQRYQAEINDLENLGEMGSGTCGQVWKMRFRKTGHVIAVKQMRRSGNKEENKRILMDLDVVLKSHDCPYIVQCFGTFITNTDVFIAMELMGTCAEKLKKRMQGPIPERILGKMTVAIVKALYYLKEKHGVIHRDVKPSNILLDERGQIKLCDFGISGRLVDSKAKTRSAGCAAYMAPERIDPPDPTKPDYDIRADVWSLGISLVELATGQFPYKNCKTDFEVLTKVLQEEPPLLPGHMGFSGDFQSFVKDCLTKDHRKRPKYNKLLEHSFIKRYETLEVDVASWFKDVMAKTESPRTSGVLSQPHLPFFR
B6: MAP2K7 p.R162H: MAP2K7 somatic mutant, observed in colorectal adenocarcinoma (protein, UniProt O14733 2-419, looked up, variant R162H)
Dual specificity …: B5 Dual specificity … with R161H
B7: MAP2K7 p.R162C: MAP2K7 somatic mutant, observed in colorectal adenocarcinoma (protein, UniProt O14733 2-419, looked up, variant R162C)
Dual specificity …: B5 Dual specificity … with R161C
B8: MAP2K4 p.S251N: MAP2K4 somatic mutant identified in a melanoma (protein, UniProt P45985 2-399, looked up, variant S251N)
Dual specificity …: AAPSPSGGGGSGGGSGSGTPGPVGSPAPGHPAVSSMQGKRKALKLNFANPPFKSTARFTLNPNPTGVQNPHIERLRTHSIESSGKLKISPEQHWDFTAEDLKDLGEIGRGAYGSVNKMVHKPSGQIMAVKRIRSTVDEKEQKQLLMDLDVVMRSSDCPYIVQFYGALFREGDCWICMELMSTSFDKFYKYVYSVLDDVIPEEILGKITLATVKALNHLKENLKIIHRDIKPSNILLDRSGNIKLCDFGINGQLVDSIAKTRDAGCRPYMAPERIDPSASRQGYDVRSDVWSLGITLYELATGRFPYPKWNSVFDQLTQVVKGDPPQLSNSEEREFSPSFINFVNLCLTKDESKRPKYKELLKHPFILMYEERAVEVACYVCKILDQMPATPSSPMYVD
B9: MAP2K4 p.A279T: MAP2K4 somatic driver mutant, observed in colorectal adenocarcinoma (protein, UniProt P45985 2-399, looked up, variant A279T)
Dual specificity …: B8 Dual specificity … with N250S, A278T
B10: MAP2K4 p.N2341: MAP2K4 somatic driver mutant, observed in ovarian serous carcinoma (protein, UniProt P45985 2-399, looked up, variant N234I)
Dual specificity …: B8 Dual specificity … with N233I, N250S

test system: HMEL-BRAF^V600E melanocytes; test: In vivo functional genetic screen and secondary validation: kinase-transduced HMEL cells implanted in nude mice; design: species or system human; settings: WT or mutant kinase expressed individually
From the text: A ‘cancer-kinase’ library was constructed containing sequence-verified ORFs in a lentiviral vector for 110 of the 120 kinases reported to sustain somatic driver mutations in diverse human cancers. This library was pooled and introduced into a human HMEL-BRAF^V600E melanocyte model system engineered with BRAF^V600E and TERT as well as p53DD and CDK4-R24C to inactivate the […] pathways, respectively. The HMEL-BRAF^V600E melanocyte profile, while representing the most common clinically-definable genetic profile in human melanoma, is insufficient to drive efficient melanoma formation following orthotopic transplantation in the skin (penetrance of 10% and latency of 26 weeks). In contrast, 40% of HMEL-BRAF^V600E melanocytes transduced with the cancer kinase pools developed tumors with an average latency of 13 weeks (range 10-18 weeks).
In vivo functional genetic screens: Lentivirus were prepared by co-transfecting 293T cells with individual vector backbones and standard virus packaging systems for subsequent collection of viral supernatants. Viral supernatants were then pooled randomly to generate 8 pools of high-titer lentiviral stocks. HMEL cells were transduced with either GFP control lentivirus or each representative lentiviral pool in the presence of 8 ug/ml polybrene (Company). Infected cells were expanded, mixed 1:1 with Matrigel (BD Bioscience) and then subcutaneously implanted in female nude animals (Taconic) at 1×10^6 cells per site on both flanks. Primary INK4A/ARF−/−, PTEN−/− murine astrocytes were transduced with either GFP control lentivirus or each representative lentiviral pool in the presence of 8 ug/ml polybrene (Company). Infected cells were expanded implanted into the brain parenchyma of female SCID mice (Charles River). Briefly, SCID mice were anesthetized and placed into a stereotactic apparatus equipped with a Z axis (Stoelting). A small hole was bored in the skull 0.5 mm anterior and 3.0 mm lateral to the bregma using a dental drill. Twenty thousand cells in Hank's Buffered Salt Solution were injected into the right caudate nucleus 2 mm below the surface of the brain using a 10-ul Hamilton syringe with an unbeveled 30 gauge needle. The scalp was closed using a 9-mm Autoclip Applier. Animals were followed daily for the development of subQ tumors or signs of neurological deficits. Animals were sacrifice, tumors were harvested, genomic DNA was prepared and kinases expressed in each tumor identified using PCR sequencing using plasmid specific CMV and V5 primers. Expression of each kinase was further validated by western blot analysis. Kinases expressed in each tumor were then enlisted into secondary validation screens in which stable HMEL or mouse astrocyte lines were generated expressing each kinase individually. Cells were again expanded and then implanted in female nude or SCID animals. All mice were housed and treated in accordance with protocols approved by the institutional care and use committees for animal research at the Dana-Farber Cancer Institute.

Molecule	Tumorigenicity in vivo
B1	YES
B2	YES
B3	YES
B4	YES

same assay, conditions: kinase transduced individually

Molecule	tumor generation individually in secondary HMEL screens
B5	did not generate tumors
B4	did not generate tumors

same assay, conditions: secondary validation, kinase transduced individually into HMEL-BRAF^V600E melanocytes

Molecule	tumor penetrance [%]
B1	30

test system: cJUN phosphorylation; test: JNK Kinase Assay (WT and mutant kinases immunoprecipitated from HMEL cells); type: biochemical, human; settings: as reported by level of cJUN phosphorylation; for MAP2K4/7 first incubated with inactive JNK2

Molecule	Kinase Activity
B1	1X
B5	1X
B6	1X
B7	1X
B8	1X
B9	<1X
B10	2.5X^
